Measured values published in patent US20140087995A1 (published 2014).
Numbered stars: 1 amine (or outer) side, 2 acyl side, 3 side chain; on linkers, the order of the positions; unused ones are H or OH. Bridge positions count the residues as written; N and C are the ends. Side chains are listed from the residue outwards. Ends that are not written are not given here. * marks the point of attachment. C20 diacid = O=C(O)CCCCCCCCCCCCCCCCCCC(=O)*; γGlu = O=C(O)[C@H](CCC(=O)[*:2])N[*:1]

B1: N^ε1-[(4S)-4-carboxy-4-[[(4S)-4-carboxy-4-(19-carboxynonadecanoylamino)butanoyl]amino]butanoyl]-[Glu14,Arg17,Pro21,Pro27,His34]-h-amylin (peptide)
peptide: K([γGlu-γGlu-C20 diacid])CNTATCATQRLAEFLRHSSPNFGAIPSSTNVGHNTY-NH2
modifications: disulfide 2-7; N-terminus assumed
SMILES: CC[C@H](C)[C@H](NC(=O)[C@H](C)NC(=O)CNC(=O)[C@H](Cc1ccccc1)NC(=O)[C@H](CC(N)=O)NC(=O)[C@@H]1CCCN1C(=O)[C@H](CO)NC(=O)[C@H](CO)NC(=O)[C@H](Cc1c[nH]cn1)NC(=O)[C@H](CCCNC(=N)N)NC(=O)[C@H](CC(C)C)NC(=O)[C@H](Cc1ccccc1)NC(=O)[C@H](CCC(=O)O)NC(=O)[C@H](C)NC(=O)[C@H](CC(C)C)NC(=O)[C@H](CCCNC(=N)N)NC(=O)[C@H](CCC(N)=O)NC(=O)[C@@H](NC(=O)[C@H](C)NC(=O)[C@@H]1CSSC[C@H](NC(=O)[C@@H](N)CCCCNC(=O)CC[C@H](NC(=O)CC[C@H](NC(=O)CCCCCCCCCCCCCCCCCCC(=O)O)C(=O)O)C(=O)O)C(=O)N[C@@H](CC(N)=O)C(=O)N[C@@H]([C@@H](C)O)C(=O)N[C@@H](C)C(=O)N[C@@H]([C@@H](C)O)C(=O)N1)[C@@H](C)O)C(=O)N1CCC[C@H]1C(=O)N[C@@H](CO)C(=O)N[C@@H](CO)C(=O)N[C@H](C(=O)N[C@@H](CC(N)=O)C(=O)N[C@H](C(=O)NCC(=O)N[C@@H](Cc1c[nH]cn1)C(=O)N[C@@H](CC(N)=O)C(=O)N[C@H](C(=O)N[C@@H](Cc1ccc(O)cc1)C(N)=O)[C@@H](C)O)C(C)C)[C@@H](C)O
notes: also called compound 87
B2: N^ε1-[(4S)-4-carboxy-4-[[(4S)-4-carboxy-4-(19-carboxynonadecanoylamino)butanoyl]amino]butanoyl]-[Glu14,Arg17,Pro21,Pro27,Pro34,Arg35]-h-amylin (peptide)
peptide: K([γGlu-γGlu-C20 diacid])CNTATCATQRLAEFLRHSSPNFGAIPSSTNVGPRTY-NH2
modifications: disulfide 2-7; N-terminus assumed
SMILES: CC[C@H](C)[C@H](NC(=O)[C@H](C)NC(=O)CNC(=O)[C@H](Cc1ccccc1)NC(=O)[C@H](CC(N)=O)NC(=O)[C@@H]1CCCN1C(=O)[C@H](CO)NC(=O)[C@H](CO)NC(=O)[C@H](Cc1c[nH]cn1)NC(=O)[C@H](CCCNC(=N)N)NC(=O)[C@H](CC(C)C)NC(=O)[C@H](Cc1ccccc1)NC(=O)[C@H](CCC(=O)O)NC(=O)[C@H](C)NC(=O)[C@H](CC(C)C)NC(=O)[C@H](CCCNC(=N)N)NC(=O)[C@H](CCC(N)=O)NC(=O)[C@@H](NC(=O)[C@H](C)NC(=O)[C@@H]1CSSC[C@H](NC(=O)[C@@H](N)CCCCNC(=O)CC[C@H](NC(=O)CC[C@H](NC(=O)CCCCCCCCCCCCCCCCCCC(=O)O)C(=O)O)C(=O)O)C(=O)N[C@@H](CC(N)=O)C(=O)N[C@@H]([C@@H](C)O)C(=O)N[C@@H](C)C(=O)N[C@@H]([C@@H](C)O)C(=O)N1)[C@@H](C)O)C(=O)N1CCC[C@H]1C(=O)N[C@@H](CO)C(=O)N[C@@H](CO)C(=O)N[C@H](C(=O)N[C@@H](CC(N)=O)C(=O)N[C@H](C(=O)NCC(=O)N1CCC[C@H]1C(=O)N[C@@H](CCCNC(=N)N)C(=O)N[C@H](C(=O)N[C@@H](Cc1ccc(O)cc1)C(N)=O)[C@@H](C)O)C(C)C)[C@@H](C)O
notes: also called compound 110
B3: N^ε1-[(4S)-4-carboxy-4-[[(4S)-4-carboxy-4-(19-carboxynonadecanoylamino)butanoyl]amino]butanoyl]-[His14,Arg17,Pro21,Pro27]-h-amylin (peptide)
peptide: K([γGlu-γGlu-C20 diacid])CNTATCATQRLAHFLRHSSPNFGAIPSSTNVGSNTY-NH2
modifications: disulfide 2-7; N-terminus assumed
SMILES: CC[C@H](C)[C@H](NC(=O)[C@H](C)NC(=O)CNC(=O)[C@H](Cc1ccccc1)NC(=O)[C@H](CC(N)=O)NC(=O)[C@@H]1CCCN1C(=O)[C@H](CO)NC(=O)[C@H](CO)NC(=O)[C@H](Cc1c[nH]cn1)NC(=O)[C@H](CCCNC(=N)N)NC(=O)[C@H](CC(C)C)NC(=O)[C@H](Cc1ccccc1)NC(=O)[C@H](Cc1c[nH]cn1)NC(=O)[C@H](C)NC(=O)[C@H](CC(C)C)NC(=O)[C@H](CCCNC(=N)N)NC(=O)[C@H](CCC(N)=O)NC(=O)[C@@H](NC(=O)[C@H](C)NC(=O)[C@@H]1CSSC[C@H](NC(=O)[C@@H](N)CCCCNC(=O)CC[C@H](NC(=O)CC[C@H](NC(=O)CCCCCCCCCCCCCCCCCCC(=O)O)C(=O)O)C(=O)O)C(=O)N[C@@H](CC(N)=O)C(=O)N[C@@H]([C@@H](C)O)C(=O)N[C@@H](C)C(=O)N[C@@H]([C@@H](C)O)C(=O)N1)[C@@H](C)O)C(=O)N1CCC[C@H]1C(=O)N[C@@H](CO)C(=O)N[C@@H](CO)C(=O)N[C@H](C(=O)N[C@@H](CC(N)=O)C(=O)N[C@H](C(=O)NCC(=O)N[C@@H](CO)C(=O)N[C@@H](CC(N)=O)C(=O)N[C@H](C(=O)N[C@@H](Cc1ccc(O)cc1)C(N)=O)[C@@H](C)O)C(C)C)[C@@H](C)O
notes: also called compound 92
B4: N^ε1-[(4S)-4-carboxy-4-[[(4S)-4-carboxy-4-(19-carboxynonadecanoylamino)butanoyl]amino]butanoyl]-[Ser14,Arg17,Pro21,Pro27,Pro34,Glu35]-h-amylin (peptide)
peptide: K([γGlu-γGlu-C20 diacid])CNTATCATQRLASFLRHSSPNFGAIPSSTNVGPETY-NH2
modifications: disulfide 2-7; N-terminus assumed
SMILES: CC[C@H](C)[C@H](NC(=O)[C@H](C)NC(=O)CNC(=O)[C@H](Cc1ccccc1)NC(=O)[C@H](CC(N)=O)NC(=O)[C@@H]1CCCN1C(=O)[C@H](CO)NC(=O)[C@H](CO)NC(=O)[C@H](Cc1c[nH]cn1)NC(=O)[C@H](CCCNC(=N)N)NC(=O)[C@H](CC(C)C)NC(=O)[C@H](Cc1ccccc1)NC(=O)[C@H](CO)NC(=O)[C@H](C)NC(=O)[C@H](CC(C)C)NC(=O)[C@H](CCCNC(=N)N)NC(=O)[C@H](CCC(N)=O)NC(=O)[C@@H](NC(=O)[C@H](C)NC(=O)[C@@H]1CSSC[C@H](NC(=O)[C@@H](N)CCCCNC(=O)CC[C@H](NC(=O)CC[C@H](NC(=O)CCCCCCCCCCCCCCCCCCC(=O)O)C(=O)O)C(=O)O)C(=O)N[C@@H](CC(N)=O)C(=O)N[C@@H]([C@@H](C)O)C(=O)N[C@@H](C)C(=O)N[C@@H]([C@@H](C)O)C(=O)N1)[C@@H](C)O)C(=O)N1CCC[C@H]1C(=O)N[C@@H](CO)C(=O)N[C@@H](CO)C(=O)N[C@H](C(=O)N[C@@H](CC(N)=O)C(=O)N[C@H](C(=O)NCC(=O)N1CCC[C@H]1C(=O)N[C@@H](CCC(=O)O)C(=O)N[C@H](C(=O)N[C@@H](Cc1ccc(O)cc1)C(N)=O)[C@@H](C)O)C(C)C)[C@@H](C)O
notes: also called compound 120
B5: N^-1-[(4S)-4-carboxy-4-(19-carboxynonadecanoylamino)butanoyl]-Gly[Arg1,His14,Arg17,Pro21,Pro27,His34]-h-amylin (peptide)
peptide: {C20 diacid-γGlu}-GRCNTATCATQRLAHFLRHSSPNFGAIPSSTNVGHNTY-NH2
modifications: disulfide 3-8
SMILES: CC[C@H](C)[C@H](NC(=O)[C@H](C)NC(=O)CNC(=O)[C@H](Cc1ccccc1)NC(=O)[C@H](CC(N)=O)NC(=O)[C@@H]1CCCN1C(=O)[C@H](CO)NC(=O)[C@H](CO)NC(=O)[C@H](Cc1c[nH]cn1)NC(=O)[C@H](CCCNC(=N)N)NC(=O)[C@H](CC(C)C)NC(=O)[C@H](Cc1ccccc1)NC(=O)[C@H](Cc1c[nH]cn1)NC(=O)[C@H](C)NC(=O)[C@H](CC(C)C)NC(=O)[C@H](CCCNC(=N)N)NC(=O)[C@H](CCC(N)=O)NC(=O)[C@@H](NC(=O)[C@H](C)NC(=O)[C@@H]1CSSC[C@H](NC(=O)[C@H](CCCNC(=N)N)NC(=O)CNC(=O)CC[C@H](NC(=O)CCCCCCCCCCCCCCCCCCC(=O)O)C(=O)O)C(=O)N[C@@H](CC(N)=O)C(=O)N[C@@H]([C@@H](C)O)C(=O)N[C@@H](C)C(=O)N[C@@H]([C@@H](C)O)C(=O)N1)[C@@H](C)O)C(=O)N1CCC[C@H]1C(=O)N[C@@H](CO)C(=O)N[C@@H](CO)C(=O)N[C@H](C(=O)N[C@@H](CC(N)=O)C(=O)N[C@H](C(=O)NCC(=O)N[C@@H](Cc1c[nH]cn1)C(=O)N[C@@H](CC(N)=O)C(=O)N[C@H](C(=O)N[C@@H](Cc1ccc(O)cc1)C(N)=O)[C@@H](C)O)C(C)C)[C@@H](C)O
notes: also called compound 100

Target: T1, human amylin receptor (amylin 3(a) receptor: human calcitonin receptor with RAMP-3) (human, UniProt P30988 25-474; O60896 24-148)
T1 construct: whole, on cells; Assay used cell membranes of the Amylin 3(a)/CRE-luc BHK cells, not intact cells; also called hAmylin-R; hAmylinR
T1 sequence (looked up) 1: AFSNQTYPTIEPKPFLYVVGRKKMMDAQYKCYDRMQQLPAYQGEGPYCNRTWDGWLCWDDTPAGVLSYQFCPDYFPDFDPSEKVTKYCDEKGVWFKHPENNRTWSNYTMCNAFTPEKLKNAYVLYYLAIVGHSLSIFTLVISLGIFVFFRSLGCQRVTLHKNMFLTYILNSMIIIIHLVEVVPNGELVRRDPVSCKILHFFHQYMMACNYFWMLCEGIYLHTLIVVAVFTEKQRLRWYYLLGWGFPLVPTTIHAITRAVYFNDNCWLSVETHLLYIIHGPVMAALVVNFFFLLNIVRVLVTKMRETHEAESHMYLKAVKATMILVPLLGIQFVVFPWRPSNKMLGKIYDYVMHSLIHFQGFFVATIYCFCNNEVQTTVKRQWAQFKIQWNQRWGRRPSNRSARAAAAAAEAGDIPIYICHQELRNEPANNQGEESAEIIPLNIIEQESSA
T1 sequence (looked up) 2: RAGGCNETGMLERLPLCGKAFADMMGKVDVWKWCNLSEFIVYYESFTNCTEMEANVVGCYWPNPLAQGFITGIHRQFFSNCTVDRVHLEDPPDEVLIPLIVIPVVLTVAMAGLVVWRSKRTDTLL
Assay: SPA competition with 125I-rat amylin on membranes of BHK cells with human calcitonin receptor and RAMP-3 (Assay V)
Procedure, shortened: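 One-site competition analysis of SPA counts yielded IC₅₀ as a measure of affinity. Membranes were at 35 ng/μL final; incubation was 120 min at 25° C, pH 7.4.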

Binder	IC50 [nM]
B1	0.633
B2	0.326
K([γGlu-γGlu-C20 diacid])CNTATCATQRLAEFLRHSSPNFGAIPSSTNVGPHTY-NH2 (disulfide 2-7 (inferred))	0.377
K([γGlu-γGlu-C20 diacid])CNTATCATQRLAEFLRHSSPNFGAILSSTPVGPETY-NH2 (disulfide 2-7 (inferred))	0.069
B3	0.179
B4	0.076
B5	1.01

Target: T2, human calcitonin receptor (human, UniProt P30988 25-474)
T2 construct: whole, on cells; Assay used cell membranes, not intact cells; also called hCTR; hCT
T2 sequence (looked up): T1 sequence (looked up) 1
Assay: SPA competition with 125I-calcitonin on membranes of BHK cells with human calcitonin receptor (Assay VII)
Procedure, shortened: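 BHK hCTR membranes 35 ng/μL + SPA beads 0.05 mg/well; buffer 50 mM Hepes pH 7.4, 1 mM CaCl2, 5 mM MgCl₂, 0.1% OA, 0.02% Tween20. 120 min, 25° C., shaking. Scintillation count; IC50 by one-site binding competition.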

Binder	IC50 [nM]
B1	22.5
B2	17.5
K([γGlu-γGlu-C20 diacid])CNTATCATQRLAEFLRHSSPNFGAIPSSTNVGPHTY-NH2 (disulfide 2-7 (inferred))	10.3
K([γGlu-γGlu-C20 diacid])CNTATCATQRLAEFLRHSSPNFGAILSSTPVGPETY-NH2 (disulfide 2-7 (inferred))	1.56
B3	26
B4	3.44
B5	66.3

Target: T2, human calcitonin receptor
Assay: ratio IC50 hCTR / IC50 hAmylin-R (reference: human amylin receptor), SPA competition assays
Procedure, shortened: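 Competition binding by SPA uses membrane preparations (35 ng/μL final) in pH 7.4 Hepes buffer with 1 mM CaCl2 and 5 mM MgCl₂. Incubation lasts 120 min at 25° C, and IC₅₀ comes from one-site fitting.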

Binder	Ratio hCT/hAmylin binding
B1	35.6
B2	53.6
K([γGlu-γGlu-C20 diacid])CNTATCATQRLAEFLRHSSPNFGAIPSSTNVGPHTY-NH2 (disulfide 2-7 (inferred))	27.3
K([γGlu-γGlu-C20 diacid])CNTATCATQRLAEFLRHSSPNFGAILSSTPVGPETY-NH2 (disulfide 2-7 (inferred))	22.6
B3	145
B4	45.3
B5	65.3
